Laboratory results: publication PMC12416549 (2024)
Positions count from the first letter of the chain named. In names and notes the source's numbering stands.

Target: T1, TNFR1 (Homo sapiens, UniProt P19438)
T1 chain: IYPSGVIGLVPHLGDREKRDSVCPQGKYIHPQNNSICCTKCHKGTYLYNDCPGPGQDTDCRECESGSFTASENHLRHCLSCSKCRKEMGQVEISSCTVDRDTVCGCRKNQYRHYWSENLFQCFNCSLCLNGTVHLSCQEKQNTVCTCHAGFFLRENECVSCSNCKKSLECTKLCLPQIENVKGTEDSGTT
Test: yeast display SC50

B1: H78Y (designed binder)
chain: MTLQELLREEALRRAEAEAFRYALELLAEKFPEQKEYLLDLAEEIESQIRSLSGVDVEDVRKFLDKEWAWVKELLAEYPAELAEVEAARAARLAELRAEVEAKVAA
apparent Kd (screen): 0.653 nM

B2: F20A (designed binder)
chain: B1 chain with F20A, Y78H
apparent Kd (screen): 2.05 nM

B3: R50D (designed binder)
chain: B1 chain with R50D, Y78H
apparent Kd (screen): 0.49 nM

B4: L3T (designed binder)
chain: B1 chain with L3T, Y78H
apparent Kd (screen): 4.83 nM

B5: L12I (designed binder)
chain: B1 chain with L12I, Y78H
apparent Kd (screen): 0.539 nM

B6: E9T (designed binder)
chain: B1 chain with E9T, Y78H
apparent Kd (screen): 0.956 nM

B7: E86Y (designed binder)
chain: B1 chain with Y78H, E86Y
apparent Kd (screen): 2.05 nM

B8: T2S (designed binder)
chain: B1 chain with T2S, Y78H
apparent Kd (screen): 0.653 nM

B9: A106G (designed binder)
chain: B1 chain with Y78H, A106G
apparent Kd (screen): 0.956 nM

B10: E16D (designed binder)
chain: B1 chain with E16D, Y78H
apparent Kd (screen): 1.05 nM

B11: V57Y (designed binder)
chain: B1 chain with V57Y, Y78H
apparent Kd (screen): 0.49 nM

B12: D65C (designed binder)
chain: B1 chain with D65C, Y78H
apparent Kd (screen): 0.539 nM

B13: L82V (designed binder)
chain: B1 chain with Y78H, L82V
apparent Kd (screen): 0.49 nM

B14: E99P (designed binder)
chain: B1 chain with Y78H, E99P
apparent Kd (screen): 1.16 nM

B15: G54Y (designed binder)
chain: B1 chain with G54Y, Y78H
apparent Kd (screen): 2.73 nM

B16: E77W (designed binder)
chain: B1 chain with E77W, Y78H
apparent Kd (screen): 0.539 nM

B17: A11M (designed binder)
chain: B1 chain with A11M, Y78H
apparent Kd (screen): 1.27 nM

B18: E84K (designed binder)
chain: B1 chain with Y78H, E84K
apparent Kd (screen): 0.869 nM

B19: I49W (designed binder)
chain: B1 chain with I49W, Y78H
apparent Kd (screen): 2.48 nM

B20: A28T (designed binder)
chain: B1 chain with A28T, Y78H
apparent Kd (screen): 1.27 nM

B21: M1C (designed binder)
chain: B1 chain with M1C, Y78H
apparent Kd (screen): 0.718 nM

B22: E5L (designed binder)
chain: B1 chain with E5L, Y78H
apparent Kd (screen): 0.718 nM

B23: V71M (designed binder)
chain: B1 chain with V71M, Y78H
apparent Kd (screen): 0.593 nM

B24: F20L (designed binder)
chain: B1 chain with F20L, Y78H
apparent Kd (screen): 0.593 nM

B25: L6W (designed binder)
chain: B1 chain with L6W, Y78H
apparent Kd (screen): 3.99 nM

B26: I45V (designed binder)
chain: B1 chain with I45V, Y78H
apparent Kd (screen): 0.593 nM

B27: L96D (designed binder)
chain: B1 chain with Y78H, L96D
apparent Kd (screen): 0.539 nM

B28: A94G (designed binder)
chain: B1 chain with Y78H, A94G
apparent Kd (screen): 0.539 nM

B29: E77P (designed binder)
chain: B1 chain with E77P, Y78H
apparent Kd (screen): 0.405 nM

B30: P32D (designed binder)
chain: B1 chain with P32D, Y78H
apparent Kd (screen): 0.869 nM

B31: R21F (designed binder)
chain: B1 chain with R21F, Y78H
apparent Kd (screen): 0.49 nM

B32: Y37V (designed binder)
chain: B1 chain with Y37V, Y78H
apparent Kd (screen): 24.4 nM

B33: K103S (designed binder)
chain: B1 chain with Y78H, K103S
apparent Kd (screen): 0.539 nM

B34: S53W (designed binder)
chain: B1 chain with S53W, Y78H
apparent Kd (screen): 13.8 nM

B35: P79H (designed binder)
chain: B1 chain with Y78H, P79H
apparent Kd (screen): 0.49 nM

B36: A106D (designed binder)
chain: B1 chain with Y78H, A106D
apparent Kd (screen): 1.05 nM

B37: K72I (designed binder)
chain: B1 chain with K72I, Y78H
apparent Kd (screen): 0.539 nM

B38: E77V (designed binder)
chain: B1 chain with E77V, Y78H
apparent Kd (screen): 0.593 nM

B39: V104S (designed binder)
chain: B1 chain with Y78H, V104S
apparent Kd (screen): 0.869 nM

B40: A11E (designed binder)
chain: B1 chain with A11E, Y78H
apparent Kd (screen): 0.446 nM

B41: A105T (designed binder)
chain: B1 chain with Y78H, A105T
apparent Kd (screen): 0.869 nM

B42: S47N (designed binder)
chain: B1 chain with S47N, Y78H
apparent Kd (screen): 0.49 nM

B43: V104Y (designed binder)
chain: B1 chain with Y78H, V104Y
apparent Kd (screen): 0.593 nM

B44: A42G (designed binder)
chain: B1 chain with A42G, Y78H
apparent Kd (screen): 0.49 nM

B45: R13N (designed binder)
chain: B1 chain with R13N, Y78H
apparent Kd (screen): 1.16 nM

B46: H78I (designed binder)
chain: B1 chain with Y78I
apparent Kd (screen): 1.16 nM

B47: V104R (designed binder)
chain: B1 chain with Y78H, V104R
apparent Kd (screen): 0.718 nM

B48: E25W (designed binder)
chain: B1 chain with E25W, Y78H
apparent Kd (screen): 1.16 nM

B49: V100P (designed binder)
chain: B1 chain with Y78H, V100P
apparent Kd (screen): 0.593 nM

B50: L41M (designed binder)
chain: B1 chain with L41M, Y78H
apparent Kd (screen): 0.718 nM

B51: W70F (designed binder)
chain: B1 chain with W70F, Y78H
apparent Kd (screen): 0.593 nM

B52: D59N (designed binder)
chain: B1 chain with D59N, Y78H
apparent Kd (screen): 0.653 nM

B53: A15R (designed binder)
chain: B1 chain with A15R, Y78H
apparent Kd (screen): 0.718 nM

B54: E16K (designed binder)
chain: B1 chain with E16K, Y78H
apparent Kd (screen): 5.31 nM

B55: E99G (designed binder)
chain: B1 chain with Y78H, E99G
apparent Kd (screen): 0.539 nM

B56: A106L (designed binder)
chain: B1 chain with Y78H, A106L
apparent Kd (screen): 0.539 nM

B57: V100G (designed binder)
chain: B1 chain with Y78H, V100G
apparent Kd (screen): 0.718 nM

B58: E86V (designed binder)
chain: B1 chain with Y78H, E86V
apparent Kd (screen): 0.956 nM

B59: E81G (designed binder)
chain: B1 chain with Y78H, E81G
apparent Kd (screen): 0.539 nM
